In patent US20030166056A1, “Transmembrane protein as a downstream target of neurotrophin and ephrin receptor tyrosine kinases, DNA encoding same and monoclonal antibodies thereto” (New York University, priority 2000, published 2003):
“Also recorded” adds a separate entry of the source.

Experiments:
Assay type in all cases: cell-based
[1] = test system: tyrosine phosphorylation of ARMS by TrkA in PC12 615 cells; experiment: Tyrosine phosphorylation of ARMS in PC12 615 cells (IP with 892 antiserum, pY99 immunoblot); conditions: for Block of NGF-induced tyrosine phosphorylation of ARMS: 100 nM pretreatment; for Induction of tyrosine phosphorylation of ARMS: 100 ng/ml NGF, 50 ng/ml EGF, 10 minutes and 2 hours
Protocol: Human embryonic kidney (HEK) 293 and 293T cells were maintained in Dulbecco's Modified Eagle's Medium (DMEM) containing 10% fetal bovine serum (FBS) supplemented with 100 U/ml penicillin, 100 μg/ml streptomycin, and 2 mM glutamine. Native PC12 cells, TrkA-overexpressing PC12 cells (615) (Hempstead et al., 1992), and TrkB-overexpressing PC12 cells were maintained in DMEM containing 10% FBS and 5% heat-inactivated horse serum with 30 U/ml penicillin, 30 μg/ml streptomycin, 2 mM glutamine, and 200 μg/ml G418.
For transient transfection experiments, HEK293 or HEK293T cells plated at 70-80% confluency in 10 cm dishes were subjected to calcium phosphate transfection with different combinations of the mammalian expression plasmids containing cDNAs for ARMS, rat TrkA, and rat HA-tagged p75 (Khursigara et al., 1999). PC12 615 cells or transiently transfected cells were harvested and lysed in 1 ml TNE buffer (10 mM Tris (pH 8.0), 150 mM NaCl, 1 mM EDTA, and 1% NP40) containing 0.12 mg/ml phenylmethylsulfonyl fluoride (PMSF), 2 μg/ml leupeptin, 1 μg/ml aprotinin, 10 mM sodium fluoride (NaF), and 1 mM sodium orthovanadate (Na3VO4) for 30 min on ice. Following centrifugation and removal of the insoluble fraction, protein concentration of the supernatant was determined by the Bio-Rad Protein Assay reagent (Bio-Rad Laboratories, Hercules, Calif.) with bovine serum albumin as the standard. Cell lysates of equivalent protein content were incubated for 4 hours to overnight with rotation at 4° C. with either anti-pan-Trk polyclonal antibody, C14 (1.5 μg) or anti-ARMS (892) antiserum (1:100). The immune complexes were immobilized on protein A-Sepharose beads (Sigma), washed six times with ice-cold TNE buffer, boiled in SDS-sample buffer, separated by sodium dodecyl sulfate-polyacrylamide gel electrophoresis (SDS-PAGE), and transferred onto PVDF membrane (Millipore, Bedford, Mass.). Immunoblotting was carried out by first blocking membranes in TBST buffer (20 mM Tris (pH 7.5), 500 mM NaCl, 0.1% Tween-20) containing 5% BSA for pY99 and 5% nonfat milk for others, and then incubating for 2 hours at room temperature or overnight at 4° C. in TBST buffer containing one of the following primary antibodies: anti-Trk 44 serum (1:2000); anti-phosphotyrosine pY99 antibody (0.1 μg/ml) (Santa Cruz Biotechnology, Santa Cruz, Calif.); anti-ARMS (892) antiserum (1:1000). Membranes were washed with TBST buffer and then incubated with horseradish peroxidase (HRP)-conjugated goat anti-rabbit (Roche Molecular Biochemicals, Indianapolis, Ind.) or goat anti-mouse secondary antibodies (Jackson ImmunoResearch Laboratories, West Grove, Pa.) at 1:10,000 and 1:7500 dilutions, respectively. Immunoreactive protein bands were detected by enhanced chemiluminescence using ECL reagents (Amersham Pharmacia Biotech, Piscataway, N.J.).
The high degree of correspondence in the expression of ARMS and neurotrophin receptors and the endogenous association with TrkA receptors led the present inventors to postulate that ARMS might function as a target for Trk receptor phosphorylation. To investigate this possibility, cell lysates from NGF-treated PC12 cells were prepared and the ARMS protein was immunoprecipitated with anti-ARMS antiserum, 892. Phosphorylation of ARMS protein was visualized by immunoblotting with an anti-phosphotyrosine antibody, pY99. Tyrosine phosphorylation of ARMS was detectable within a minute of NGF addition (FIG. 10A, top), closely following the time course of TrkA autophosphorylation (FIG. 10A, bottom). With continued NGF treatment, the phosphorylation of ARMS persisted for 25 hours (FIG. 10B).

[2] = target: T1, association between ARMS and the TrkA receptor (Homo sapiens, UniProt P04629); experiment: Coprecipitation of TrkA and ARMS in PC12 615 cells; conditions: NGF 100 ng/ml, IP anti-Trk C-14, blot anti-ARMS
T1 construct: expressed in transfected cells; host or cells: PC12 615 cells (TrkA-overexpressing PC12); ARMS is endogenous to these cells
T1 sequence (P04629 33-796): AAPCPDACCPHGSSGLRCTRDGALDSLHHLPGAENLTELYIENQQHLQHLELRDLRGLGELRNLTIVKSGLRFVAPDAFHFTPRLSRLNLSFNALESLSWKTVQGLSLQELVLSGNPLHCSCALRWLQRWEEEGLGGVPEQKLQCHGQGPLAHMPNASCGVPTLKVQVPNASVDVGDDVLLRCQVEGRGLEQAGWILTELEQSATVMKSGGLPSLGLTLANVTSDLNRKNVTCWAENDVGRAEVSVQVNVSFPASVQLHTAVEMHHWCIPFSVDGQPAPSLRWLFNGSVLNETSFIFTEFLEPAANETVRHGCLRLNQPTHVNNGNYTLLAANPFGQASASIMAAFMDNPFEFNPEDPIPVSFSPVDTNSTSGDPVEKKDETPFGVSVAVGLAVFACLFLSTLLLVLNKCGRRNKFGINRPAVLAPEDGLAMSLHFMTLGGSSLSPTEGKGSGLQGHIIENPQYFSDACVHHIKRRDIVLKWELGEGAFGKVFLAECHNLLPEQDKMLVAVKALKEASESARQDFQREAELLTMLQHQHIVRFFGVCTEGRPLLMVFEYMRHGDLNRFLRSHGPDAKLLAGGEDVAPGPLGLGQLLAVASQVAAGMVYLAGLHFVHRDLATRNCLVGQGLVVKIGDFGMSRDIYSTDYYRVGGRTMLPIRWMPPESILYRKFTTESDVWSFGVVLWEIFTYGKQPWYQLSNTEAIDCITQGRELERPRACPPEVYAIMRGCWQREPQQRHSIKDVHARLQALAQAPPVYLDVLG
T1 sequence (Q9EQG6 whole entry partner): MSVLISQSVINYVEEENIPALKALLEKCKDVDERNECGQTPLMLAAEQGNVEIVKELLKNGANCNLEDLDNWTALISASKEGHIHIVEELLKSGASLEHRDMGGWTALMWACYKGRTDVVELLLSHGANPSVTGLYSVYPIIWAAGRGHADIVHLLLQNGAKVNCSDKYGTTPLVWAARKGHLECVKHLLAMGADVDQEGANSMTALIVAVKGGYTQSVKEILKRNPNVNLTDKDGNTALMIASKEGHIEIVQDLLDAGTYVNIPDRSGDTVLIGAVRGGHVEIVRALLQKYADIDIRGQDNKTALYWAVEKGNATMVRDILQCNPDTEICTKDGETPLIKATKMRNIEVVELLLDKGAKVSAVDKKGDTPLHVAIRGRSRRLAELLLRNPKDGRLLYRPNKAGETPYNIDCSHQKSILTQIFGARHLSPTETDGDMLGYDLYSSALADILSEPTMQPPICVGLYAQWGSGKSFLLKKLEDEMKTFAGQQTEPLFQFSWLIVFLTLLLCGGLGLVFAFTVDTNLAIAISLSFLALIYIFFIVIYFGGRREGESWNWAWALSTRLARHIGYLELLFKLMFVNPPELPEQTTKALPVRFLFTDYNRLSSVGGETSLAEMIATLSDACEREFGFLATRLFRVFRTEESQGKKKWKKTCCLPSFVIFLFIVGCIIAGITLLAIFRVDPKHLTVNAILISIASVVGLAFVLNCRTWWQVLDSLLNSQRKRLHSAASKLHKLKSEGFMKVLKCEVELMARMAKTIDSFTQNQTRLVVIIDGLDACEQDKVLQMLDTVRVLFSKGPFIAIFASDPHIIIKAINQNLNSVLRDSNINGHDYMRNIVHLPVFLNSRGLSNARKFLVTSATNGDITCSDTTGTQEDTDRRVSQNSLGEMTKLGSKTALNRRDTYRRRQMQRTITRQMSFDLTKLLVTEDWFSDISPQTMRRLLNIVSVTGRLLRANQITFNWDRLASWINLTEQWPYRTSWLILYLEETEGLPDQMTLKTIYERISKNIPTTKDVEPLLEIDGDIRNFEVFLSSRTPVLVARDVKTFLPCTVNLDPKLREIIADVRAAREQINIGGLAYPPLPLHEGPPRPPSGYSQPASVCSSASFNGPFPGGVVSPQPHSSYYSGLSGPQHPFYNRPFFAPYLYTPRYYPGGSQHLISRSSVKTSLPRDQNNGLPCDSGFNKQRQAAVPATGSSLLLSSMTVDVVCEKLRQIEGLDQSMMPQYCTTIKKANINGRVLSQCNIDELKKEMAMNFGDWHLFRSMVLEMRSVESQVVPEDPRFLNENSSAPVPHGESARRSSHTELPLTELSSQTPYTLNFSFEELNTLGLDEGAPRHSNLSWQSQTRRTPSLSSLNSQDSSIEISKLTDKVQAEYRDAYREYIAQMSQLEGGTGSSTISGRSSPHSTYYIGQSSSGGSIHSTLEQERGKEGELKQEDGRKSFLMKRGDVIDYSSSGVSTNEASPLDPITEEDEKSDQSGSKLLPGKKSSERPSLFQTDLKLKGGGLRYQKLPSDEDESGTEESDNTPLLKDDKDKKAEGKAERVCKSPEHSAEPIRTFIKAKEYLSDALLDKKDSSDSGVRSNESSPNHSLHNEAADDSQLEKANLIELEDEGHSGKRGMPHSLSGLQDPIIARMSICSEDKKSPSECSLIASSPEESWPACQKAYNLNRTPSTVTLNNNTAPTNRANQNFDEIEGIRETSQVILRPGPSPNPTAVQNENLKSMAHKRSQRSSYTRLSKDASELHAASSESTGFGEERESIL
Protocol: (§1) FIGS. 9A-9D show coprecipitation of TrkA and ARMS (FIG. 9A) and colocalization of TrkA and ARMS (FIGS. 9B-9D). In FIG. 9A, PC12 615 cells were treated for 10 minutes and 25 hours with NGF (100 ng/ml). Lysates were prepared and subjected to immunoprecipitation with anti-Trk C-14 antibody, followed by immunoblot with anti-ARMS antibody. Normal rabbit IgG was used as a negative control. In FIGS. 9B-9D, immunofluorescence analysis of ARMS and TrkA receptor in sympathetic neurons is shown. SCG sympathetic neurons were grown in the presence of 150 ng/ml NGF, fixed and immunostained as described in the Methods section of Example 1. The ARMS protein and the TrkA receptor were subjected to double immunostaining using an anti-ARMS antiserum (FIG. 9B) and an anti-Trk B-3 (FIG. 9C) monoclonal antibody and analyzed by confocal microscopy. […]
(§2) For transient transfection experiments, HEK293 or HEK293T cells plated at 70-80% confluency in 10 cm dishes were subjected to calcium phosphate transfection with different combinations of the mammalian expression plasmids containing cDNAs for ARMS, rat TrkA, and rat HA-tagged p75 (Khursigara et al., 1999). […] Following centrifugation and removal of the insoluble fraction, protein concentration of the supernatant was determined by the Bio-Rad Protein Assay reagent (Bio-Rad Laboratories, Hercules, Calif.) with bovine serum albumin as the standard. […]

[3] = target: T2, association between ARMS and the TrkA receptor; experiment: Coprecipitation of TrkA and ARMS in PC12 615 cells; conditions: NGF 100 ng/ml
T2 construct: expressed in transfected cells; host or cells: PC12 615 cells (TrkA-overexpressing PC12); ARMS is endogenous to these cells
T2 sequence (P04629 33-796): as the sequence (P04629 33-796) above
T2 sequence (Q9EQG6 whole entry partner): as the sequence (Q9EQG6 whole entry partner) above
Protocol: as §1, §2

[4] = test system: distribution of ARMS in hippocampal neurons and PC12 cells; experiment: Immunofluorescence analysis of ARMS distribution; conditions: confocal immunofluorescence with antibody 892
Protocol: FIGS. 16A and 16B show a PC12 Immunofluorescence analysis. PC12 cells with (FIG. 16A) or without (FIG. 16B) NGF treatment cultured in Lab-Tek chamber slides (Nalge Nunc International) coated with collagen and poly-L-lysine were fixed with paraformaldehyde and permeablized with cold methanol. Cells were blocked with PBS containing 10% FCS and incubated with purified antibody (3 μg/ml) against the C-terminus of ARMS protein, 892 (Example 1). Primary antibodies were visualized using fluorescence-conjugated secondary antibodies (FITC-conjugated goat anti-rabbit IgG; Jackson Laboratories).
FIGS. 17A-17F show immunolocalization of ARMS and VAMP-2, a synaptic vesicle marker, in hippocampal neurons. Primary cultures of hippocampal neurons were obtained from rats E17-19 and maintained with Neurobasal medium (Gibco) supplemented with B-27 and 0.4 mM glutamine in Lab-Tek chamber slides (Nalge Nunc International) coated with poly-L-lysine. […] Primary antibodies were detected using fluorescence-conjugated secondary antibodies (FITC-conjugated goat anti-rabbit IgG and rhodamine-conjugated goat anti-mouse IgG (Jackson Laboratories)). […]

| Molecule | Block of NGF-induced tyrosine phosphorylation of ARMS ([1]; PC12 615 cells, NGF treatment) | Block of NGF-induced tyrosine phosphorylation of ARMS ([1]; PC12 615 cells, NGF treatment, listed as K-252a) | Induction of tyrosine phosphorylation of ARMS ([1]; PC12 615 cells) | Time to detectable ARMS phosphorylation ([1]; PC12 615 cells, NGF treatment) [min] | Time of peak ARMS phosphorylation ([1]; PC12 cells, NGF treatment) [min] | Persistence of ARMS-TrkA association after treatment [2] [h] | Association between ARMS and TrkA receptor [3] | Change in distribution of ARMS [4] |
| --- | --- | --- | --- | --- | --- | --- | --- | --- |
| COC(=O)[C@@]1(O)C[C@H]2O[C@]1(C)n1c3ccccc3c3c4c(c5c6ccccc6n2c5c31)C(=O)NC4 [K252a, reference compound] | potently blocked | completely abolished |  |  |  |  |  |  |
| insulin |  |  | not elicited |  |  |  |  |  |
| NGF: neurotrophin, ligand of TrkA; obtained from Harlan (protein, UniProt P01139 122-241, looked up) Beta-nerve growth factor: SSTHPVFHMGEFSVCDSVSVWVGDKTTATDIKGKEVTVLAEVNINNSVFRQYFFETKCRASNPVESGCRGIDSKHWNSYCTTTHTFVKALTTDEKQAAWRFIRIDTACVCVLSRKATRRG |  |  | considerably more robust; also recorded: specifically induced | ≤ 1 | ≤ 10 | 25 | NGF-dependent association | dramatic change in distribution; also recorded: localized at neurite tips |
